From US20240254229A1 (Molecular Partners, published 2024)

Key:
[1] = biological target: T1, hCD123 (recombinant, construct not stated) (human, UniProt P26951 19-305, limits assumed); experiment: switchSENSE, hCD33 and hCD123 co-immobilised 2:1; panel headed CD123, column KD1; KD2 printed N.A.
T1 construct: also called CD123 (Ligand 2)
T1 sequence (looked up): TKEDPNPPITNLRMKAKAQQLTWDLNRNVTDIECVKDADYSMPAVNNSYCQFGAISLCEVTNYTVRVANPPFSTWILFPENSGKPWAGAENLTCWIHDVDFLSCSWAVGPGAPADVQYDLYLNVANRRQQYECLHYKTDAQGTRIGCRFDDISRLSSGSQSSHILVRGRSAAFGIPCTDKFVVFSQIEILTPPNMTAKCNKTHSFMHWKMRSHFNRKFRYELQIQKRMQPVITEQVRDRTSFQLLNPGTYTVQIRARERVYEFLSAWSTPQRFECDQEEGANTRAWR
Method: (§1) The designed ankyrin repeat proteins: DARPin® protein #20, DARPin® protein #21, DARPin® protein #22, DARPin® protein #27, DARPin® protein #40 and DARPin® protein #41 were tested in a concentration of 0.16 and 64 nM (in a buffer PE140 containing 10 mM Na2HPO4/NaH2PO4, 140 mM NaCl, 0.05% Tween20, 50 μM EDTA, 50 μM EGTA) for binding against two ligands hCD33 and hCD123, which both were immobilized simultaneously to DNA nanolevers, on the surface, at a pre-defined ratio (2:1, CD33:CD123) and 10% density (100:50) on an ADP-48-1-0 chip, where 100% density 1000 receptors/μm2 (preincubated R1-B48-CD123 and G1-A48-CD33 (100 nM) diluted in cNL-48 (dark)). Briefly the following steps were performed: [0724] Conjugation. Amine coupling of the two ligands (CD33 and CD123) to the DNA nanolever (A48, B48, respectively) and purification of the conjugates using the proFIRE® solution (Dynamic Biosensors GmbH) at 25° C. [0725] Evaluation of all the combined affinity and avidity of all different proteins to both ligands attached on the surface of an ADP chip using a DRX+ instrument (dynamic BIOSENSORS). [0726] Statistical analysis (repeatability from 2 to 5 times) including regeneration of the chip surface every concentration analyzed and long dissociation times and data were fitted using a bi-exponential global fit.

[2] = biological target: T1, hCD123 (recombinant, construct not …); experiment: switchSENSE, CD33 and CD123 on one chip; monophasic
Method: as §1

[3] = biological target: T2, hCD33 (recombinant, construct not stated) (human, UniProt P20138 18-259, limits assumed); experiment: switchSENSE, hCD33 and hCD123 co-immobilised 2:1; panel headed CD33
T2 construct: also called CD33 (Ligand 1)
T2 sequence (P20138 18-259 limits assumed): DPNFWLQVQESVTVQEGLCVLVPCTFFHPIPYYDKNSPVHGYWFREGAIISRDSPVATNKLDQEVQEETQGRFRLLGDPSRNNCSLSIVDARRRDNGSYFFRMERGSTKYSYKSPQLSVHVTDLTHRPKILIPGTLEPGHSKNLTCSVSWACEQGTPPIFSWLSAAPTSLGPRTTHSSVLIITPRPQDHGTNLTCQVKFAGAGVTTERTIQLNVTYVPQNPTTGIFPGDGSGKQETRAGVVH
Method: as §1

[4] = biological target: T3, biotinylated extracellular domain of human CD33 (SEQ ID NO: 87), Fc and Avi tagged (human, UniProt P20138 18-259, biotinylated with BirA-GST (Avi tag)); experiment: SPR (ProteOn XPR36), target on GLC chip
T3 construct: also called hCD33; human target hCD33
T3 sequence (P20138 18-259 R69G): as the sequence (P20138 18-259 limits assumed) above, with R52G counted along it

human serum albumin = biological target: T4, human serum albumin (human, UniProt P02768 25-609); experiment: SPR (ProteOn XPR36), target on GLC chip
T4 construct: also called HSA; SA
T4 sequence (P02768 25-609 limits assumed): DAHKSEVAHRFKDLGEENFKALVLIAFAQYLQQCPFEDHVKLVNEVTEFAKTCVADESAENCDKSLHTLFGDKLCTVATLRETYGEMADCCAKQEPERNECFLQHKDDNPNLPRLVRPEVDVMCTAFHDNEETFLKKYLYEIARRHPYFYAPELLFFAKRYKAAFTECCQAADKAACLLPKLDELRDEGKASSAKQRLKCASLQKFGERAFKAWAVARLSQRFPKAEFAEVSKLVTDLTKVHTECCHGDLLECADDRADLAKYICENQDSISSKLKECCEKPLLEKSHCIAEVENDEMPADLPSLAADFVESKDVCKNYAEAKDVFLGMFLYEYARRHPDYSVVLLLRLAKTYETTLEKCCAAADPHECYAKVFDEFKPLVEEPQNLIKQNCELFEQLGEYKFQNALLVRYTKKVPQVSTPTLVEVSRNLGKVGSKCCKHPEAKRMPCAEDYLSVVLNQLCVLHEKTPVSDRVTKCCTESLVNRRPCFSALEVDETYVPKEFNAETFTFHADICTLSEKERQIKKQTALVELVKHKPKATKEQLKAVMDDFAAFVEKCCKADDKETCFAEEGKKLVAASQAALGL

[5] = biological target: T5, extracellular domain of human CD70 (SEQ ID NO: 89), hCD70-Fc-trimer, ACRO Biosystems (human, UniProt P32970 52-193, chemically biotinylated where the biotinylated form was used); experiment: SPR (ProteOn XPR36), target on GLC chip
T5 construct: also called human CD70-Fc-trimer; Bio.CD70
T5 sequence: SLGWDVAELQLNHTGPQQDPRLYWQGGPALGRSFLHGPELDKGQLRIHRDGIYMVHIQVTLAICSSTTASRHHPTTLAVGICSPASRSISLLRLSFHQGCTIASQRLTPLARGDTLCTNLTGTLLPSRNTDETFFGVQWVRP

[6] = biological target: T6, biotinylated extracellular domain of human CD123 (SEQ ID NO: 88), Fc and Avi tagged (human, UniProt P26951 19-303, biotinylated with BirA-GST (Avi tag)); experiment: SPR (ProteOn XPR36), target on GLC chip, DARPin as analyte
T6 construct: also called hCD123
T6 sequence: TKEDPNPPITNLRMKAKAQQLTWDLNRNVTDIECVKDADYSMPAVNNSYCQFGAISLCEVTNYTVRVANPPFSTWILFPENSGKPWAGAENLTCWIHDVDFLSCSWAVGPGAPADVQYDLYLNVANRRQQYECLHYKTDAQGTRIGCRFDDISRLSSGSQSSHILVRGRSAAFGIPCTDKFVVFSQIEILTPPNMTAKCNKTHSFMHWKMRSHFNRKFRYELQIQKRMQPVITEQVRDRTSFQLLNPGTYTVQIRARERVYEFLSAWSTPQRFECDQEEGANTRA

[7] = biological target: T7, human scCD3εγ (scCD3εγ_Avi-Bio) (human, biotin on the C-terminal Avi-tag (in vitro, BirA) where the biotinylated form was used); experiment: ribosome display selection, crude extract HTRF
T7 construct: Used for all SPR and HTRF results on human CD3; also called recombinant human CD3; human CD3
T7 chain: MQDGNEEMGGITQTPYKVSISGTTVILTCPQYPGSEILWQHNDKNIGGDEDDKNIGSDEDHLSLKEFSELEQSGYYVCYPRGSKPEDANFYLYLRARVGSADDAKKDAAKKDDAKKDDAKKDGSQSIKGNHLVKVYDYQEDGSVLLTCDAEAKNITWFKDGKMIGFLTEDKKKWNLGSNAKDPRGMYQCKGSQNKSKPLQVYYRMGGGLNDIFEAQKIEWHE

[8] = biological target: T3, biotinylated extracellular domain of …; experiment: crude extract HTRF, 12 nM biotinylated hCD33
Method: The extract of each lysed clone was applied as a 1:900 dilution (final concentration) in PBSTB (PBS supplemented with 0.1% Tween 20® and 0.2% (w/v) BSA, pH 7.4) together with 12 nM (final concentration) biotinylated hCD33, 1:200 (final concentration) of anti-strep-D2 HTRF antibody-FRET acceptor conjugate (Cisbio) and 1:200 (final concentration) of anti-6His-Tb antibody FRET donor conjugate (Cisbio) to a well of 384 well plate and incubated for 90 minutes at RT. The HTRF was read-out on a Tecan M1000 using a 340 nm excitation wavelength and a 665±10 nm emission filter. […] An amino acid sequence of a selected ankyrin repeat domain that specifically bind to hCD33 are provided in SEQ ID NO: 15.

[9] = biological target: T6, biotinylated extracellular domain of …; experiment: SPR (ProteOn XPR36), target on GLC chip
[10] = biological target: T5, extracellular domain of human CD70 (SEQ …); experiment: SPR (ProteOn XPR36), target on GLC chip, DARPin as analyte
[11] = biological target: T8, biotinylated extracellular domains of human CD123 (uniprot ID 26951), Fc format (human, UniProt P26951 19-305, biotinylated); experiment: ribosome display selection, crude extract HTRF
T8 construct: extracellular domain
T8 sequence (looked up): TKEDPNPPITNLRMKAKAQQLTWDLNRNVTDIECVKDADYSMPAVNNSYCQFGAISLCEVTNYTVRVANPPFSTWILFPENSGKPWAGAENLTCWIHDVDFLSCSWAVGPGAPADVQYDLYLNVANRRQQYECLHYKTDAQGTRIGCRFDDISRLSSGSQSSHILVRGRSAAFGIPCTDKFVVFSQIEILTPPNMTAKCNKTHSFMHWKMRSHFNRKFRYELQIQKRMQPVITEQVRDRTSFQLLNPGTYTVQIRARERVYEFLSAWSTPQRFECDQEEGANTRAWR

[12] = biological target: T1, hCD123 (recombinant, construct not …); experiment: switchSENSE, hCD33 and hCD123 co-immobilised 2:1; panel headed CD123, y axis kon
Method: as §1

[13] = biological target: T2, hCD33 (recombinant, construct not …); experiment: switchSENSE, CD33 and CD123 on one chip; monophasic
Method: as §1

[14] = biological target: T2, hCD33 (recombinant, construct not …); experiment: switchSENSE, hCD33 and hCD123 co-immobilised 2:1; panel headed CD33, column KD1; KD2 printed N.A.
Method: as §1

B1: DARPin® protein #21 (designed binder)
chain: DLGKKLLEAARAGQDDEVRILMANGADVNALDWLGHTPLHLAAYEGHLEIVEVLLKNGADVNAIDDNNGFTPLHLAAIDGHLEIVEVLLKNGADVNAQDKFGKTAFDISIDNGNEDLAEILQKAAGSPTPTPTTPTPTPTTPTPTPTGSDLGKKLLEAARAGQDDEVRELLKAGADVNAKDKDGYTPLHLAAREGHLEIVEVLLKAGADVNAKDKDGYTPLHLAAREGHLEIVEVLLKAGADVNAQDKSGKTPADLAADAGHEDIAEVLQKAAGSPTPTPTTPTPTPTTPTPTPTGSDLGQKLLEAAWAGQDDEVRILLAAGADVNAKNSRGWTPLHTAAQTGHLEIFEVLLKAGADVNAKNDKRVTPLHLAAALGHLEIVEVLLKAGADVNARDSWGTTPADLAAKYGHGDIAEVLQKLA
notes: also called αCD123-Ni2C-αCD3
Kd [1]: 2.2 nM
koff [2]: 0.06 s⁻¹
binding result [3]: no binding

B2: DARPin® protein #34 (designed binder)
chain: DLGKKLLEAALEGQLDEVRELLKAGADVNAKDQEGYTPLHLAAALGHLEIVEVLLKAGADVNAKDSIGRTPLHLAAYKGHLEIVEVLLKAGADVNAQDLLGETPADLAAEQGHQDIAEVLQKAA
notes: CD123-specific ankyrin repeat domain; not shown: N-terminal His-tag
binding result [4]: no binding (tested: 100 nM (highest concentration))
binding result (human serum albumin): no binding (tested: 100 nM (highest concentration))
binding result [5]: no binding (tested: 100 nM (highest concentration))
Kd [6]: 8.6 nM

B3: DARPin® protein #2 (designed binder)
chain: MRGSHHHHHHDLGQKLLEAAWAGQDDEVRELLKAGADVNAKNSRGWTPLHTAAQTGHLEIFEVLLKAGADVNAKDDKGVTPLHLAAALGHLEIVEVLLKAGADVNAQDSWGTTPADLAAKYGHEDIAEVLQKAA
notes: CD3-specific ankyrin repeat domain
binding result [7]: binds

B4: DARPin® protein #15 (designed binder)
chain: DLGDKLLLAATSGQDDEVRILLAAGADVNAKDYDGDTPLHLAADEGHLEIVEVLLKAGADVNAKDYSGSTPLHAAAAYGHLEIVEVLLKAGADVNAQDVFGYTPADLAAYVGHEDIAEVLQKAA
notes: CD33-specific domain; screened as crude extract of a His-tagged clone (vector pMPAG06)
binding result [8]: binds

B5: DARPin® protein #33 (designed binder)
chain: DLGYKLLQAAYDGQLDEVRILLKAGADVNAKDSRGQTPLHYAASIGHLEIVEVLLKAGADVNAKDDHGWTPLHLAAWSGHLEIVEVLLKAGADVNAQDQEGTTPADLAAVQGHQDIAEVLQKAA
notes: CD70-specific ankyrin repeat domain; not shown: N-terminal His-tag
binding result [9]: no binding (tested: 100 nM (highest concentration))
binding result [4]: no binding (tested: 100 nM (highest concentration))
binding result (human serum albumin): no binding (tested: 100 nM (highest concentration))
Kd [10]: 0.18 nM

B6: DARPin® protein #6 (designed binder)
chain: DLGKKLLEAARAGQDDEVRILMANGADVNALDWLGHTPLHLAAYEGHLEIVEVLLKNGADVNAIDDNNGFTPLHLAAIDGHLEIVEVLLKNGADVNAQDKFGKTAFDISIDNGNEDLAEILQKAA
notes: CD123-specific domain
binding result [11]: binds

B7: DARPin® protein #22 (designed binder)
chain: DLGKKLLEAARAGQDDEVRELLKAGADVNAKDKDGYTPLHLAAREGHLEIVEVLLKAGADVNAKDKDGYTPLHLAAREGHLEIVEVLLKAGADVNAQDKSGKTPADLAADAGHEDIAEVLQKAAGSPTPTPTTPTPTPTTPTPTPTGSDLGDKLLLAATSGQDDEVRILLAAGADVNAKDYDGDTPLHLAADEGHLEIVEVLLKAGADVNAKDYSGSTPLHAAAAYGHLEIVEVLLKAGADVNAQDVFGYTPADLAAYVGHEDIAEVLQKAAGSPTPTPTTPTPTPTTPTPTPTGSDLGQKLLEAAWAGQDDEVRILLAAGADVNAKNSRGWTPLHTAAQTGHLEIFEVLLKAGADVNAKNDKRVTPLHLAAALGHLEIVEVLLKAGADVNARDSWGTTPADLAAKYGHGDIAEVLQKLA
notes: also called Ni2C-αCD33-αCD3
binding result [12]: no binding
koff [13]: 0.01 s⁻¹
Kd [14]: 15 nM
